# Columns and labels:
# [1] = target: T1, AT1 receptor (AII receptor) (Bos taurus, UniProt P25104); assay type: binding, bovine; settings: 37° C., 2 h, HPLC
# T1 construct: from tissue; host or cells: bovine adrenal cortex membranes
# T1 sequence (P25104 1-359): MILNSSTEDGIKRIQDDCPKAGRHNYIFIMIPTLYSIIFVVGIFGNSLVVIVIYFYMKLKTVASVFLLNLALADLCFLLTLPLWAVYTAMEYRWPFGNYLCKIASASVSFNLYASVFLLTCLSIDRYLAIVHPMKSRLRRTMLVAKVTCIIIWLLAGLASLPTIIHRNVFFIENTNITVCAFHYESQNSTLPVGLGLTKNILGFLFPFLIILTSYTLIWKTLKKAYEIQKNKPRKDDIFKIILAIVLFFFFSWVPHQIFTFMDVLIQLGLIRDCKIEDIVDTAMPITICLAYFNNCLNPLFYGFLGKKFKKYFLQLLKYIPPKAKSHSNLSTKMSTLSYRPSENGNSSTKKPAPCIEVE
# AT4 receptor [2] = target: T2, AT4 receptor (Cavia porcellus, UniProt H0VNM7); experiment: 125I-AIV binding and competition, guinea pig hippocampus membranes; settings: competition of 0.6 nM 125I-AIV
# T2 sequence (H0VNM7 1-1025): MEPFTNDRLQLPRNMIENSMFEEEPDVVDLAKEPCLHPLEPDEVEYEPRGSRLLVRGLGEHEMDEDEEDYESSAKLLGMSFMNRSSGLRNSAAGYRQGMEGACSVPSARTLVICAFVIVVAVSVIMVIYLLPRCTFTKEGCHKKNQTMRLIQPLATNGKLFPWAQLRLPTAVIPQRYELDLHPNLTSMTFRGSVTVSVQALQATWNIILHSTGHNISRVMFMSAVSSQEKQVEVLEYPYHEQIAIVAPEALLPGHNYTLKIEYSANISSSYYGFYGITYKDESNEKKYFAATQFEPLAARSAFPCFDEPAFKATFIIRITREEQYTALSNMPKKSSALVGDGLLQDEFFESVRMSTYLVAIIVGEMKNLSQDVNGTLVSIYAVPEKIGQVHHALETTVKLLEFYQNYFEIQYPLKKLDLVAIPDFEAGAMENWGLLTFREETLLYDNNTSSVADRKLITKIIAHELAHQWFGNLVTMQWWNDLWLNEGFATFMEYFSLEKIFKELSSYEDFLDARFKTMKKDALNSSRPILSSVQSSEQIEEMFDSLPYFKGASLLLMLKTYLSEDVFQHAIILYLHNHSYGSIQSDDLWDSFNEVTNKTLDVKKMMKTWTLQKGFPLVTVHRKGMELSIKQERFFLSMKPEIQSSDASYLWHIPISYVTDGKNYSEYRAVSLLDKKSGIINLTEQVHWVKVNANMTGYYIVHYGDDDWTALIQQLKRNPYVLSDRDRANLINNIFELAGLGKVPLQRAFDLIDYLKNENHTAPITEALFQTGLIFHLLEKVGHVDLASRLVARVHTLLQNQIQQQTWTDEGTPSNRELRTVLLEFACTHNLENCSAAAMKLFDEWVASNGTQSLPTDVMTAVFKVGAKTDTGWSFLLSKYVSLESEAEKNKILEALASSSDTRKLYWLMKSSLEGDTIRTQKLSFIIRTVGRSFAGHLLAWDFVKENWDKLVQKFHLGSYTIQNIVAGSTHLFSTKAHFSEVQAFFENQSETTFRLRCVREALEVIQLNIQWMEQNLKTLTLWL
# AT4 receptor [3] = target: T3, AT4 receptor (Bos taurus, UniProt F1N1Q8); experiment: 125I-AIV binding and competition, coronary venular endothelial cell (CVEC) membranes; set-up: species or system bovine; settings: competition of 0.5 nM 125I-AIV; read-out: Ki
# T3 sequence (F1N1Q8 1-1022): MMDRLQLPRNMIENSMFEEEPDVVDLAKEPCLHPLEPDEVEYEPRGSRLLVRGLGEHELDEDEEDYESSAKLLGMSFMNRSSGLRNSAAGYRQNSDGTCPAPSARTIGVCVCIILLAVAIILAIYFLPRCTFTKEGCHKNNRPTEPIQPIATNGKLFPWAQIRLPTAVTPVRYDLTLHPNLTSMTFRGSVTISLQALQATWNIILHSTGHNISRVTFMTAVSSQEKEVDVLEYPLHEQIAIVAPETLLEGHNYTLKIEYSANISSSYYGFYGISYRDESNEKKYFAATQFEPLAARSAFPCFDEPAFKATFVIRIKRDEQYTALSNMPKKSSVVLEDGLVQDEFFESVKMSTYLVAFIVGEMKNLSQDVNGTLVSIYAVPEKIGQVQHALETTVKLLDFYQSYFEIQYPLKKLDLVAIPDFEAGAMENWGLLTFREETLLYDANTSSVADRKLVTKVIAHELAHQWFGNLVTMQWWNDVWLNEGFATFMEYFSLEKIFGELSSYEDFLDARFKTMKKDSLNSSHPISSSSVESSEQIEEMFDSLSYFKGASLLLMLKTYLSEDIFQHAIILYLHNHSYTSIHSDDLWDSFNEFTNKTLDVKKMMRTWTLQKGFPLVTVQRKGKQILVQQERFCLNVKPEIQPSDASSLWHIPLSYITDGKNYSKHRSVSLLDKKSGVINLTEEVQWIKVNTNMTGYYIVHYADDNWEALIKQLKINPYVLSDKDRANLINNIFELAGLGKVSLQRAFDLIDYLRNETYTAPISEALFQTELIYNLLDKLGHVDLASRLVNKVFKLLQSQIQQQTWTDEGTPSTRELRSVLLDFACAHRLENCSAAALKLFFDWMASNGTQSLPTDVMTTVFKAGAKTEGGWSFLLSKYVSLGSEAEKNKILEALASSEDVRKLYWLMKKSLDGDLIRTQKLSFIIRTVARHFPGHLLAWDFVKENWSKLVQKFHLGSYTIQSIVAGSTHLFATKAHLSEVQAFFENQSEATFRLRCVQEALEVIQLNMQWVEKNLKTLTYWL
# rats = experiment: Passive avoidance conditioning after icv injection; assay type: in vivo, rat
# AT4 receptor [4] = target: T3, AT4 receptor; experiment: 125I-AIV binding and competition, bovine adrenal cortical membranes; settings: read-out: 125I-AIV Binding (Ki); competition
# [5] = in vivo; cited from earlier work
# [6] = in vivo; cited from earlier work; remark: listed apart in the source
substance,measurement,setting,value
Asp1 Arg2 Val3 Tyr4 Ile5 His6 Pro7 Phe8 (DRVYIHPF) [AII],overall hydrolysis under conditions of the assay,[1],less than 2%
same,Ki,AT4 receptor [2],> 1 µM
same,Ki,AT4 receptor [3],0.194 ± 0.0445 µM
same,passive avoidance latency / cognitive effect (in words),rats,no specific effect
same,Ki,AT4 receptor [4],> 1 µM
same,half-lives,[5],4.4 min
same,metabolized during transit through the kidney,[6],72-76%

# From patent publication US5854388A, “Angiotensin IV peptides and receptor” (Washington State University Research Foundation, priority 1994, dated 1998)
